Reference: patent publication US20140120555A1

Experiments:
[1] = biological target: human CXCR4 (Chemokine receptor 4) (human) (UniProt P61073); assay: FACS on NIH3T3-CXCR4 transfected cells, 10 µg/ml antibody
[2] = biological target: human CXCR4 (Chemokine receptor 4) (human) (UniProt P61073); assay: FACS on Hela cervix cancer cells (endogenous CXCR4), 10 µg/ml antibody
[3] = biological target: human CXCR4 (Chemokine receptor 4) (human) (UniProt P61073); assay: FACS on MDA-MB-231 breast cancer cells (endogenous CXCR4), 10 µg/ml antibody
[4] = biological target: human CXCR4 (Chemokine receptor 4) (human) (UniProt P61073); assay: FACS on U937 promyelocytic cancer cells (endogenous CXCR4), 10 µg/ml antibody

Sequence of human CXCR4 (Chemokine receptor 4) (human) (P61073 whole entry): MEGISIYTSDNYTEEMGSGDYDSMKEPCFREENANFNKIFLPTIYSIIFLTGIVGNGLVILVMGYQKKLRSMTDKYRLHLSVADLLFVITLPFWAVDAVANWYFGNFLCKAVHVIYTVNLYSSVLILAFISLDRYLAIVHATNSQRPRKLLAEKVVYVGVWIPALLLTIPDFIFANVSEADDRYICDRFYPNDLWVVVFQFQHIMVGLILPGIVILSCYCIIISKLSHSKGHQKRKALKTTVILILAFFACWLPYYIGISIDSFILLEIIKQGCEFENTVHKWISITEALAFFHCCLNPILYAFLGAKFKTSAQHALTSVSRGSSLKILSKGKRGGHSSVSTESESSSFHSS

MFI [1]: 2750 MFI
MFI [2]: 1850 MFI
MFI [3]: 239 MFI
MFI [4]: 645 MFI
B1: murine monoclonal antibody 515H7 (hybridoma CNCM I-4019) (antibody, V domains shown)
VH: EVNLVESGGGLVQPGGSLRLSCATSGFTFTDNYMSWVRQPPGKALEWLGFIRNKANGYTTDYSASVRGRFTISRDNSQSILYLQMNALRAEDSATYYCARDVGSNYFDYWGQGTTLTVSS
VL: DIVMSQSPSSLAVSAGEKVTMSCKSSQSLFNSRTRKNYLAWYQQKPGQSPKLLIYWASARDSGVPARFTGSGSETYFTLTISRVQAEDLAVYYCMQSFNLRTFGGGTKLEIK
modifications: Biotinylated when used as tracer in the competition assay of Example 3 (site not stated); unlabelled in Example 2.
